This is an account of results in US20230220068A1 (CODIAK BIOSCIENCES, published 2023).

This assay concerns the target T1, PrX (human, UniProt Q9P2B2).
T1 construct: also called PTGFRN overexpressing exosomes
T1 sequence (scaffold on exosomes, looked up): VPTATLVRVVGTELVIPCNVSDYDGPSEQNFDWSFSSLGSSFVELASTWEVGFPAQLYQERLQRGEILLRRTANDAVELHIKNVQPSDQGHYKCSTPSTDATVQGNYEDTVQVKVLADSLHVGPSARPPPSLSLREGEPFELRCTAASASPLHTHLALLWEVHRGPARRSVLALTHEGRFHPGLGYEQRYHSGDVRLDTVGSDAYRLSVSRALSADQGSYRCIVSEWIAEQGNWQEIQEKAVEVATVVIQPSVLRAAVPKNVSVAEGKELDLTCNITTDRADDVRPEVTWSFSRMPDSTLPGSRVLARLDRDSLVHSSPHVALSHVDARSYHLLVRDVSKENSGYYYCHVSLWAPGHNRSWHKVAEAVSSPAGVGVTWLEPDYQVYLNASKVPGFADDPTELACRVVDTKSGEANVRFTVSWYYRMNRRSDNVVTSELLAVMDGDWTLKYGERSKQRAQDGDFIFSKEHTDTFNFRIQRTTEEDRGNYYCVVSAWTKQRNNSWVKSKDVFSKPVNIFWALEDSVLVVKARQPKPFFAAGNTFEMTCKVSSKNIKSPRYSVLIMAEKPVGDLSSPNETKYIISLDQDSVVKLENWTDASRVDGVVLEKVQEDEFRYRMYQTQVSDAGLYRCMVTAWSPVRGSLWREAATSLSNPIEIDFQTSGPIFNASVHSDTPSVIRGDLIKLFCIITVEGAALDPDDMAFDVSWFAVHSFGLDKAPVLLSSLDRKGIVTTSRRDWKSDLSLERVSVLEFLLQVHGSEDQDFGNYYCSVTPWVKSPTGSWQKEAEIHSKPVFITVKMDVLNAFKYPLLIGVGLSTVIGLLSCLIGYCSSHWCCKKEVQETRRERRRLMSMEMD
In words: Octet, exosomes on mouse SIRPα. On the technique in general: BLI is a label-free optical method that tracks binding on a fibre tip over time.

B1: mouse SIRPα (receptor, UniProt P97797 32-373, looked up)
chain: KELKVTQPEKSVSVAAGDSTVLNCTLTSLLPVGPIRWYRGVGPSRLLIYSFAGEYVPRIRNVSDTTKRNNMDFSIRISNVTPADAGIYYCVKFQKGSSEPDTEIQSGGGTEVYVLAKPSPPEVSGPADRGIPDQKVNFTCKSHGFSPRNITLKWFKDGQELHPLETTVNPSGKNVSYNISSTVRVVLNSMDVNSKVICEVAHITLDRSPLRGIANLSNFIRVSPTVKVTQQSPTSMNQVNLTCRAERFYPEDLQLIWLENGNVSRNDTPKNLTKNTDGTYNYTSLFLVNSSAHREDVVFTCQVKHDQQPAITRNHTVLGFAHSSDQGSMQTFPDNNATHNWN
As to B1, the binding result was “no binding”.
